Measurements from the Human Domainome abundance scans (Beltran et al. 2025).
± gives the uncertainty stated by the source.

B1: Homeobox protein SIX6, residues 134 to 184; numbered along this chain, O95475 (parent)
chain: CFKERTRHLLREWYLQDPYPNPSKKRELAQATGLTPTQVGNWFKNRRQRDR

Variants of: B1
Assay: abundance fitness (aPCA) (normalised: wild type 0, dead -1); higher = more abundant; growth selection in yeast, the domain comes from the species named
Settings: Homo sapiens

Variant	abundance fitness
CFKERTRHLLREWYLQDPYPNPSKKRERAQATGLTPTQVGNWFKNRRQRDR [L28R]	-0.765 ± 0.06
CFKERTRHLLREWYLQDPYPNPSKKREYAQATGLTPTQVGNWFKNRRQRDR [L28Y]	-0.124 ± 0.13
CFKERTRHLLREWYLQDPYPNPSKKREWAQATGLTPTQVGNWFKNRRQRDR [L28W]	-0.788 ± 0.15
CFKERTRHLLREWYLQDPYPNPSKKRESAQATGLTPTQVGNWFKNRRQRDR [L28S]	-0.981 ± 0.13
CFKERTRHLLREWYLQDPYPNPSKKREQAQATGLTPTQVGNWFKNRRQRDR [L28Q]	-0.88 ± 0.26
CFKERTRHLLREWYLQDPYPNPSKKREVAQATGLTPTQVGNWFKNRRQRDR [L28V]	-0.378 ± 0.052
CFKERTRHLLREWYLQDPYPNPSKKRELAQATTLTPTQVGNWFKNRRQRDR [G33T]	-0.727 ± 0.1
CFKERTRHLLREWYLQDPYPNPSKKRELAQATQLTPTQVGNWFKNRRQRDR [G33Q]	-0.514 ± 0.049
CFKERTRHLLREWYLQDPYPNPSKKRELAQATPLTPTQVGNWFKNRRQRDR [G33P]	-0.848 ± 0.061
CFKERTRHLLREWYLQDPYPNPSKKRELAQATDLTPTQVGNWFKNRRQRDR [G33D]	-0.629 ± 0.14
CFKERTRHLLREWYLQDPYPNPSKKRELAQATLLTPTQVGNWFKNRRQRDR [G33L]	-0.735 ± 0.059
CFKERTRHLLREWYLQDPYPNPSKKRELAQATFLTPTQVGNWFKNRRQRDR [G33F]	-0.946 ± 0.14
CFKERTRHLLREWYLQDPYPNPSKKRELAQATYLTPTQVGNWFKNRRQRDR [G33Y]	-0.741 ± 0.19
CFKERTRHLLREWYLQDPYPNPSKKRELAQATCLTPTQVGNWFKNRRQRDR [G33C]	-0.757 ± 0.081
CFKERTRHLLREWYLQDPYPNPSKKRELAQATNLTPTQVGNWFKNRRQRDR [G33N]	-0.499 ± 0.082
CFKERTRHLLREWYLQDPYPNPSKKRELAQATALTPTQVGNWFKNRRQRDR [G33A]	-0.712 ± 0.059
CFKERTRHLLREWYLQDPYPNPSKKRELAQATKLTPTQVGNWFKNRRQRDR [G33K]	-0.679 ± 0.072
CFKERTRHLLREWYLQDPYPNPSKKRELAQATMLTPTQVGNWFKNRRQRDR [G33M]	-0.555 ± 0.11
CFKERTRHLLREWYLQDPYPNPSKKRELAQATWLTPTQVGNWFKNRRQRDR [G33W]	-0.853 ± 0.065
CFKERTRHLLREWYLQDPYPNPSKKRELAQATSLTPTQVGNWFKNRRQRDR [G33S]	-0.598 ± 0.065
CFKERTRHLLREWYLQDPYPNPSKKRELAQATHLTPTQVGNWFKNRRQRDR [G33H]	-0.61 ± 0.066
CFKERTRHLLREWYLQDPYPNPSKKRELAQATILTPTQVGNWFKNRRQRDR [G33I]	-0.936 ± 0.32
CFKERTRHLLREWYLQDPYPNPSKKRELAQATRLTPTQVGNWFKNRRQRDR [G33R]	-0.738 ± 0.051
CFKERTRHLLREWYLQDPYPNPSKKRELAQATELTPTQVGNWFKNRRQRDR [G33E]	-0.722 ± 0.09
CFKERTRHLLREWYLQDPYPNPSKKRELAQATGHTPTQVGNWFKNRRQRDR [L34H]	-0.896 ± 0.066
CFKERTRHLLREWYLQDPYPNPSKKRELAQATGITPTQVGNWFKNRRQRDR [L34I]	-0.638 ± 0.072

Variant	abundance fitness
CFKERTRHLLREWYLQDPYPNPSKKRELAQATGDTPTQVGNWFKNRRQRDR [L34D]	-0.936 ± 0.087
CFKERTRHLLREWYLQDPYPNPSKKRELAQATGFTPTQVGNWFKNRRQRDR [L34F]	-0.725 ± 0.12
CFKERTRHLLREWYLQDPYPNPSKKRELAQATGATPTQVGNWFKNRRQRDR [L34A]	-0.911 ± 0.079
CFKERTRHLLREWYLQDPYPNPSKKRELAQATGETPTQVGNWFKNRRQRDR [L34E]	-0.624 ± 0.18
CFKERTRHLLREWYLQDPYPNPSKKRELAQATGCTPTQVGNWFKNRRQRDR [L34C]	-0.806 ± 0.081
CFKERTRHLLREWYLQDPYPNPSKKRELAQATGGTPTQVGNWFKNRRQRDR [L34G]	-0.742 ± 0.1
CFKERTRHLLREWYLQDPYPNPSKKRELAQDTGLTPTQVGNWFKNRRQRDR [A31D]	-0.888 ± 0.32
CFKERTRHLLREWYLQDPYPNPSKKRELAQMTGLTPTQVGNWFKNRRQRDR [A31M]	-0.008 ± 0.086
CFKERTRHLLREWYLQDPYPNPSKKRELAQVTGLTPTQVGNWFKNRRQRDR [A31V]	-0.151 ± 0.066
CFKERTRHLLREWYLQDPYPNPSKKRELAQLTGLTPTQVGNWFKNRRQRDR [A31L]	0.068 ± 0.059
CFKERTRHLLREWYLQDPYPNPSKKRELAQKTGLTPTQVGNWFKNRRQRDR [A31K]	-0.364 ± 0.14
CFKERTRHLLREWYLQDPYPNPSKKRELAQRTGLTPTQVGNWFKNRRQRDR [A31R]	-0.185 ± 0.06
CFKERTRHLLREWYLQDPYPNPSKKRELAQWTGLTPTQVGNWFKNRRQRDR [A31W]	-0.494 ± 0.11
CFKERTRHLLREWYLQDPYPNPSKKRELAQNTGLTPTQVGNWFKNRRQRDR [A31N]	-0.098 ± 0.1
CFKERTRHLLREWYLQDPYPNPSKKRELAQFTGLTPTQVGNWFKNRRQRDR [A31F]	0.262 ± 0.11
CFKERTRHLLREWYLQDPYPNPSKKRELAQETGLTPTQVGNWFKNRRQRDR [A31E]	-0.14 ± 0.056
CFKERTRHLLREWYLQDPYPNPSKKRELAQPTGLTPTQVGNWFKNRRQRDR [A31P]	-0.782 ± 0.23
CFKERTRHLLREWYLQDPYPNPSKKRELAQHTGLTPTQVGNWFKNRRQRDR [A31H]	-0.514 ± 0.14
CFKERTRHLLREWYLQDPYPNPSKKRELAQITGLTPTQVGNWFKNRRQRDR [A31I]	0.253 ± 0.12
CFKERTRHLLREWYLQDPYPNPSKKRELAQGTGLTPTQVGNWFKNRRQRDR [A31G]	-0.65 ± 0.058
CFKERTRHLLREWYLQDPYPNPSKKRELAQCTGLTPTQVGNWFKNRRQRDR [A31C]	-0.287 ± 0.082
CFKERTRHLLREWYLQDPYPNPSKKRELAQQTGLTPTQVGNWFKNRRQRDR [A31Q]	-0.001 ± 0.09
CFKERTRHLLREWYLQDPYPNPSKKRELAQSTGLTPTQVGNWFKNRRQRDR [A31S]	-0.292 ± 0.081
CFKERTRHLLREWYLQDPYPNPSKKRELAQTTGLTPTQVGNWFKNRRQRDR [A31T]	-0.045 ± 0.094
CFKERTRHLLREWYLQDPYPNPSKKRELAQYTGLTPTQVGNWFKNRRQRDR [A31Y]	-0.36 ± 0.15
